# From patent publication US20140072553A1 (MORPHOTEK, published 2014)
# B1: human anti-SEB monoclonal antibody F10 (antibody, V domains shown)
# VH: QVQLVQSGGGLVKPGGSLRLSCAASGFTFSSYSMNWVRQAPGKGLEWVSSISSSSSYIYYADSVKGRFTISRDNAKNSLYLQMNSLRAEDTAVYYCARGGVAGRTEIYYYYYGMDVWGQGTTVTVSS
# VL: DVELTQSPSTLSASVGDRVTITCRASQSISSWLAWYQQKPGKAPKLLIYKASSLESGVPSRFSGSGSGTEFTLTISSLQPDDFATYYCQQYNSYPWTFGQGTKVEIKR
# B2: human anti-SEB monoclonal antibody 79G9 (antibody, V domains shown)
# VH: EVQLEESGAGLLKPSETLSLTCAVYGGSFSGYYWSWIRQAPGKGLEWIGEIDHSGTTNYNPSLKSRVTISVETSKNQFSLRLSSVTAADSAVYYCASSGYCSHGLCPQEDWGQGTLVTVSS
# VL: DIELTQSPSFLSASVGDRVAITCRASQGISNYLAWYQQKPGKAPKLLIYAAFVLQSGVPSRFSGSGSGTEFTLTISNLQPEDFATYYCQQLNSYPRAFGPGTKVDIKR
# B3: human anti-SEB monoclonal antibody 100C9 (antibody, V domains shown)
# VH: EVQLVESGGGLVQPGGSLRLSCSASGFTFSSYWMSWVRQAPGKGLEWVANIIQDGSEKYYADSVKGRLTISRDNAKNSLYLQMNSLRVDDTAVYYCARGYEGCSATRCYLYYFDYWGPGTLVTVSS
# VL: SYVLTQPPSVSVSPGQTARITCSGDALPKQYTYWYQQKPGQAPVVVIYKDSERPSGIPERFSGSSSGTTVTVTISGVQAEDEADYYCQSADSSGTSLVFGGGTKLTVLG
# Target: tetanus toxoid (UniProt P04958 2-1315)
# Sequence (P04958 2-457 limits assumed, chain 1 of 2): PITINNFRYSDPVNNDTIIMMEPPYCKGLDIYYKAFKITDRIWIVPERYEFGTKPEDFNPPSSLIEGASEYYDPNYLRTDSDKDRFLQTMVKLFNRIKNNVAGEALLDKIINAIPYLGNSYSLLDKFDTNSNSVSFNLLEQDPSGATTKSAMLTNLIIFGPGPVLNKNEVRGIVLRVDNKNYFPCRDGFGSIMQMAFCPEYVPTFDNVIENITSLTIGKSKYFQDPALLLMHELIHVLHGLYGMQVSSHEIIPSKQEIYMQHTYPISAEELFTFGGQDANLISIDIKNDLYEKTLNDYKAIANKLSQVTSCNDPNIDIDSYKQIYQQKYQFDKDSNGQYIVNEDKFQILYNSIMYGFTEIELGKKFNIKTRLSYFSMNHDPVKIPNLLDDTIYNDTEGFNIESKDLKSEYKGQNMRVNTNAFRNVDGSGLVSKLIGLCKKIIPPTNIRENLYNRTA
# Sequence (P04958 458-1315 limits assumed, chain 2 of 2): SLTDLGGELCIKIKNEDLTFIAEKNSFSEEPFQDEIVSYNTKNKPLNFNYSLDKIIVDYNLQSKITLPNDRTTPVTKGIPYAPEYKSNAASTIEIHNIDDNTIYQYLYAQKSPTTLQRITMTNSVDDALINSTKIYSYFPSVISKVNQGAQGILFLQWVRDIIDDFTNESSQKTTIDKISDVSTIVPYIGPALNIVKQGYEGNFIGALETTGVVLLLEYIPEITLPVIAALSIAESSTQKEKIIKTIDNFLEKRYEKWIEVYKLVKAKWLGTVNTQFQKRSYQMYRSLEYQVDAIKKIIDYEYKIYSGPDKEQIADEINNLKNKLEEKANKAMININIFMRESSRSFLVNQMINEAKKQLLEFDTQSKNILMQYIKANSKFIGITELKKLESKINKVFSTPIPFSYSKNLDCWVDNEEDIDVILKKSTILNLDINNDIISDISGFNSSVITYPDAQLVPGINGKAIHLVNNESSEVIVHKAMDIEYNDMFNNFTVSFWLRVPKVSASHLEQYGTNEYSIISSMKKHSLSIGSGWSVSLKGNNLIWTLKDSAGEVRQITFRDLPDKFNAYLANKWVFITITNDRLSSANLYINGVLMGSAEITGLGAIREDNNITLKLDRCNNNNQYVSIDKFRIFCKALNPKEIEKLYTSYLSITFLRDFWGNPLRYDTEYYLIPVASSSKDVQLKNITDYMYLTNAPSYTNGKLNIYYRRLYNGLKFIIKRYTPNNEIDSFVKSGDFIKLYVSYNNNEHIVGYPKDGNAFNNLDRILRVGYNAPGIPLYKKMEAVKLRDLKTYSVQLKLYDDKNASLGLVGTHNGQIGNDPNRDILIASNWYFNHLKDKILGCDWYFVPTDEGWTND
# Assay: hybridoma screening ELISA
row,Binder,binding result
1,B1,no binding
2,B2,no binding
3,B3,no binding
